Laboratory results: article PMC6423499 (2019)

Target: VHL (VHL/ElonginB/ElonginC, VCB) as used in solution (UniProt P40337 1-213; Q15370 1-104; Q15369 17-112)
Assay: FP; MZ1 ternary

VHL (VHL/ElonginB/ElonginC, VCB) as used in solution, sequence (P40337 whole entry, chain 1 of 3): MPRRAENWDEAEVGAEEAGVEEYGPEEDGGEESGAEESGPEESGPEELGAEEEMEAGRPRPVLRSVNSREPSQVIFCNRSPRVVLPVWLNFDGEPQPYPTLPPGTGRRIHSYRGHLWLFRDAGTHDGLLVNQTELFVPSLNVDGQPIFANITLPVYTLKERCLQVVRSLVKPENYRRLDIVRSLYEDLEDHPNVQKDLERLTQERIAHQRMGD
VHL (VHL/ElonginB/ElonginC, VCB) as used in solution, sequence (Q15370 1-104, chain 2 of 3): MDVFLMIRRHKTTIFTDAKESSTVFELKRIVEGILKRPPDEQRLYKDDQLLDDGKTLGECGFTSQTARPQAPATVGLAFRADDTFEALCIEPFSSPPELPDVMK
VHL (VHL/ElonginB/ElonginC, VCB) as used in solution, sequence (Q15369 17-112, chain 3 of 3): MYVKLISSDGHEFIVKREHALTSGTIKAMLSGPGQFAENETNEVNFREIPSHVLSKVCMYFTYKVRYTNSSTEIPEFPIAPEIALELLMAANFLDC

Ki: 6 nM
B1: Brd2^BD2 with the G-to-E point mutation at Gly382 (domain or fragment)
chain: GKLSEQLKHCNGILKELLSKKHAAYAWPFYKPVDASALELHDYHDIIKHPMDLSTVKRKMENRDYRDAQEFAADVRLMFSNCYKYNPPDHDVVAMARKLQDVFEFRYAKMPD
